The assay has as its target AcrIF25 (A. baumannii). The experiment in a line: cross-linking.

In turn, AcrIF25 (natural protein) had a stoichiometry N of 2.

The stoichiometry N is the number of molecules, sites or subunits per partner or assembly.

These data come from publication doi:10.1101/2024.01.05.574328.
